We go through one substance from article PMC12518842.

This experiment addresses NISTmAb Primary Sample (PS 8670). Briefly: FPLC; mAb sample after buffer exchange; sample buffer 15 mM acetic acid, 40 mM NaCl, pH 5 (ionic strength 50 mM); column and running conditions not told.

Turning to “NISTmAb Primary Sample (PS 8670) (antibody)”, the percent dimers is under 1%.
